# Results as given in patent publication US20060229240A1 (GARDELL ET AL, published 2006).
# Where two headings read alike, the source gives them in different places. Positions of bridges follow the written chain, without caps; N, C: chain ends. Non-standard residues stand in square brackets, D forms with d. No end group written: not given here. hArg = N=C(N)NCCCC[C@H](N)C(=O)O; Aib = CC(C)(N)C(=O)O
# T1: PTH/PTHrP receptor (P1R), wild-type, full-length (human, UniProt Q03431 27-593)
# T1 sequence (looked up): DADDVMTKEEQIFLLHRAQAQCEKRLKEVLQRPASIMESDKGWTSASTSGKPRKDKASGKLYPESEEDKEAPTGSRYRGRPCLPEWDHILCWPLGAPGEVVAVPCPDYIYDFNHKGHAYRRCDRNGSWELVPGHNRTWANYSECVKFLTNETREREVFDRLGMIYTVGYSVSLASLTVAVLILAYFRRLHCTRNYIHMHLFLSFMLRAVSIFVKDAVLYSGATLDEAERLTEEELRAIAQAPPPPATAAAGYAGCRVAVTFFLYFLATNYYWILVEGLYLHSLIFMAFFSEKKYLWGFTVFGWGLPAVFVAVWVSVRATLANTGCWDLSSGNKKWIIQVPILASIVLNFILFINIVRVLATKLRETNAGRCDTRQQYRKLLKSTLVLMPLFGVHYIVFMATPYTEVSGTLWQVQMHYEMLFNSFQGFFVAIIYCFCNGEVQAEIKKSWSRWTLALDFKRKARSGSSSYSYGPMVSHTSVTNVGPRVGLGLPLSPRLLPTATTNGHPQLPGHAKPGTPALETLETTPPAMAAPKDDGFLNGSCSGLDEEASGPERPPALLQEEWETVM
# T2: P1R-DelNt (truncated human P1R deleted for residues 24-181) (human, UniProt Q03431 182-593)
# T2 sequence (looked up): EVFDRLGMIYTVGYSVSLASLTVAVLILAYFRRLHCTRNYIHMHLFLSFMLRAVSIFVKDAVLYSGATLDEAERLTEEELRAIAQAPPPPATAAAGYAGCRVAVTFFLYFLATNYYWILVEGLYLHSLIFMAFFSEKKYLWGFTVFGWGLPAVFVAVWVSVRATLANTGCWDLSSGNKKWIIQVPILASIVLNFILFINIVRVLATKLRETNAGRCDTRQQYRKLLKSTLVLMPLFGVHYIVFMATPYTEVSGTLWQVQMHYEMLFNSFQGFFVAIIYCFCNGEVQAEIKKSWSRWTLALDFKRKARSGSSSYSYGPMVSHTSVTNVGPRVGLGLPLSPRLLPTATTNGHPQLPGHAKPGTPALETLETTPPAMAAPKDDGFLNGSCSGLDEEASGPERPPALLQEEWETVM
# Legend:
# [1] = target: T1, PTH/PTHrP receptor (P1R), wild-type, …; test: cell-based or functional assay
# [2] = target: T2, P1R-DelNt (truncated human P1R deleted …); test: cell-based or functional assay
# [3] = target: T2, P1R-DelNt (truncated human P1R deleted …); test: cell-based or functional assay; remark: listed apart in the source
# [4] = target: T1, PTH/PTHrP receptor (P1R), wild-type, …; test: cell-based or functional assay; remark: listed apart in the source
# [5] = target: T1, PTH/PTHrP receptor (P1R), wild-type, …; test: cell-based or functional assay; remark: listed apart in the source
# [6] = target: T1, PTH/PTHrP receptor (P1R), wild-type, …; test: cell-based or functional assay; remark: listed apart in the source
# [7] = target: T2, P1R-DelNt (truncated human P1R deleted …); test: cell-based or functional assay; remark: listed apart in the source
# [8] = target: T1, PTH/PTHrP receptor (P1R), wild-type, …; test: competition with 125I-[Ala3,12,Gln10,Har11,Trp14,Arg19,Tyr21]PTH(1-21)-amide tracer on HKRK-B28 cells expressing P1R
# Experimental: Competition Binding. Binding reactions were performed with […] cells or in COS-7 cells in 24-well plates. The cells were rinsed with 0.5 mL of binding buffer, and then treated successively with 100 μL binding buffer, 100 μL of binding buffer containing various amounts of unlabeled competitor ligand, and 100 μL of binding buffer containing ca. 100,000 cpm of ¹²⁵I-[M]PTH(1-21)(SEQ. ID. NO. 16) or ¹²⁵I-[Aib^{1,3},M]PTH(1-21)(SEQ. ID. NO. 17) (ca. 26 fmol; final volume=300 μL). Incubations were 4 to 6 h at 4° C., at which time near equilibrium conditions were attained. Cells were then placed on ice, the binding medium was removed, and the monolayer was rinsed three times with 0.5 mL of cold binding buffer. The cells were subsequently lysed with 0.5 mL 5N NaOH and counted for radioactivity. For each tracer and in each experiment, the non-specific binding was determined as the radioactivity that bound in the presence of the same unlabeled peptide at a concentration of 1 μM, and was ˜1% of total radioactivity added for each tracer. The maximum specific binding (B₀) was the total radioactivity bound in the absence of competing ligand, corrected for nonspecific binding, and for each tracer, ranged from 8% to 20% of the total radioactivity added. Nonlinear regression was used to calculate binding IC₅₀ values (see below). Scatchard transformations of homologous competition binding data derived from studies with 26 fmol of ¹²⁵I-[Aib^{1,3},M]PTH(1-21) (SEQ. ID. NO. 17) were employed for estimations of apparent equilibrium dissociation constant (kDapps) and total number of ligand binding sites (Bₘₐₓ), assuming a single class of binding sites and equal affinities of the iodinated and non iodinated ligand.
# The peptide PTH(1-34) ([Tyr³⁴]bPTH(1-34)NH₂) (SEQ. ID. NO. 10) and analogs containing substitutions at positions 6 and/or 10 in place of Gln and Asn, respectively, were evaluated in HKRK-B28 cells for the capacity to stimulate cAMP accumulation, and to inhibit the binding of ¹²⁵I-[Ala^{3,12}, Gln¹⁰, Har¹¹, Trp¹⁴,Arg¹⁹, Tyr²¹]PTH(1-21)-amide (SEQ. ID. NO. 30) tracer radioligand.
# [9] = target: T1, PTH/PTHrP receptor (P1R), wild-type, …; test: cell-based or functional assay; remark: listed apart in the source
binder,measurement,setting,value
AVAEIQLMHQR-NH2 [PTH(1-11) (AlaValAlaGluIleGlnLeuMetHisGlnArg-amide)],fold increase in cAMP formation,[1],75 fold
same,fold increase in cAMP formation,[2],55 fold
same,cAMP EC50,[3],14 µM
same,cAMP Emax (%),[3],100%
same,cAMP EC50,[4],5 µM
same,cAMP Emax (%),[4],100%
"[Aib]V[Aib]EIQLMHQ[hArg]AKW-NH2 (N-terminus assumed; SMILES CC[C@H](C)[C@H](NC(=O)[C@H](CCC(=O)O)NC(=O)C(C)(C)NC(=O)[C@@H](NC(=O)C(C)(C)N)C(C)C)C(=O)N[C@@H](CCC(N)=O)C(=O)N[C@@H](CC(C)C)C(=O)N[C@@H](CCSC)C(=O)N[C@@H](Cc1c[nH]cn1)C(=O)N[C@@H](CCC(N)=O)C(=O)N[C@@H](CCCCNC(=N)N)C(=O)N[C@@H](C)C(=O)N[C@@H](CCCCN)C(=O)N[C@@H](Cc1c[nH]c2ccccc12)C(N)=O) [[Aib^1,3]PTH(1-14) (AibValAibGluIleGlnLeuMetHisGlnHarAlaLysTrp-amide)]",fold increase in cAMP accumulation,[2],50 fold
same,cAMP EC50,[3],0.0066 µM
same,cAMP Emax (%),[3],100%
"AVAEIKLMHE[hArg]AKW-NH2 (lactam 6-10; N-terminus assumed; SMILES CC[C@H](C)[C@H](NC(=O)[C@H](CCC(=O)O)NC(=O)[C@H](C)NC(=O)[C@@H](NC(=O)[C@H](C)N)C(C)C)C(=O)N[C@H]1CCCCNC(=O)CC[C@@H](C(=O)N[C@@H](CCCCNC(=N)N)C(=O)N[C@@H](C)C(=O)N[C@@H](CCCCN)C(=O)N[C@@H](Cc2c[nH]c3ccccc23)C(N)=O)NC(=O)[C@H](Cc2c[nH]cn2)NC(=O)[C@H](CCSC)NC(=O)[C@H](CC(C)C)NC1=O) [[(Lys^6, Glu^10)lac.]PTH(1-14)]","cAMP potency relative to linear [Lys^6, Glu^10]PTH(1-14)",[1],6 fold
same,cAMP EC50,[5],21 µM
same,cAMP Emax (%),[5],59%
SVSEIQLMHALGKHLNSMERVEWLRKKLQDVHNY-NH2 [[Ala^10]PTH(1-34)],cAMP EC50,[6],0.27 µM
same,cAMP Emax (%),[6],96%
same,cAMP EC50,[7],14 µM
same,cAMP Emax (%),[7],46%
same,IC50,[8],6.4 µM
same,cAMP EC50,[9],3 µM
same,cAMP Emax (%),[9],106%
